# Measurements from PMC11098746.
# Where “and” joins values, the source holds several entries; their conditions need not be identical. Equal values may be shown once.
# How the values were obtained:
# [1] = target: Pf34 bait (P. falciparum Pf34 ectodomain, human Fc-tagged dimeric bait) (P. falciparum)
# [2] = target: Pf34 bait (P. falciparum Pf34 ectodomain, human Fc-tagged dimeric bait) (P. falciparum); assay: SPR
# [3] = target: Pf34 bait (Pf34 ectodomain with CD4d3+4, human Fc and C-tag) (Plasmodium falciparum); assay: SPR
# Izumo (Mus musculus) = Izumo (Mus musculus) (UniProt Q9D9J7); conditions: cited from earlier work
# Sequence of Izumo (Mus musculus) (Q9D9J7 22-319): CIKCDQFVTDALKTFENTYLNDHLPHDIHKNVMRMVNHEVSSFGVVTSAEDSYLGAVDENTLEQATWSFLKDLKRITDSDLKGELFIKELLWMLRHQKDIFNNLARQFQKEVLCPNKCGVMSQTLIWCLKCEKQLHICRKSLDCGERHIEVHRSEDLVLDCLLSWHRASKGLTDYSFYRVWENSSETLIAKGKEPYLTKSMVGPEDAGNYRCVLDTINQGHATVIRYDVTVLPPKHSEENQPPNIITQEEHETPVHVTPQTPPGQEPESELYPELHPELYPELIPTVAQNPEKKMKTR
# [4] = target: PfRON6 C-terminal bait (PfRON6 residues 537-950 with CD4d3+4, human Fc and C-tag) (Plasmodium falciparum); assay: SPR
# Sequence of Juno (Q9EQF4 20-222): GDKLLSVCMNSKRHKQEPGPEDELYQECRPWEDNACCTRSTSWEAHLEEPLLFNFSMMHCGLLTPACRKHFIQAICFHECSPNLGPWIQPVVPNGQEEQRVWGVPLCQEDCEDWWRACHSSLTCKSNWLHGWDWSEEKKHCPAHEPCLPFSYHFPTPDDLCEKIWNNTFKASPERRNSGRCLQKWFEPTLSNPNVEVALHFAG
substance,measurement,setting,value
"FGFR4 prey (human fibroblast growth factor receptor 4 ectodomain, pentameric 5xNanoLuc-tagged prey) (from UniProt P22455 22-369)","inhibition of NF54 sporozoite invasion of primary human hepatocytes (ISI assay) by LD1 mAb, up to 25 µg/mL",[1],20%
same,"inhibition of NF54 sporozoite invasion of primary human hepatocytes (ISI assay) by anti-FGFR4 rabbit pAbs, up to 2 mg/mL",[1],20%
FGFR4-CD4-Bio-His (purified monomeric FGFR4 ectodomain) (from UniProt P22455 22-369) (receptor),Kd,[2],46 µM and 40 µM
same,t1/2,[2],< 1 s and 0.4 s
FGFR4-CD4-Bio-His (purified monomeric human FGFR4 ectodomain) (from UniProt P22455 22-369) (receptor),Kd,[3],47 µM and 14 µM and 31 µM
same,kon,[3],16000 M⁻¹ s⁻¹ and 44000 M⁻¹ s⁻¹ and 30000 M⁻¹ s⁻¹
Juno (from UniProt Q9EQF4),Kd,Izumo (Mus musculus),12 µM
Pf34-CD4-Bio-His (purified monomeric Pf34) (natural protein),Kd,[4],2.9 µM
same,koff,[4],0.0015 s⁻¹
same,kon,[4],520 M⁻¹ s⁻¹
